Data published in US20220380459A1 (DRAGONFLY THERAPEUTICS, published 2022).

B1: ADI-10159 IgG (antibody, V domains shown)
VH: EVQLVESGGGLVQPGGSLRLSCAASGFTFSSYGMSWVRQAPGKGLEWVANIKQDGSEKYYVDSVKGRFTISRDNAKNSLYLQMNSLRAEDTAVYYCAREGGPYYDSSGYFVYYGMDVWGQGTTVTVSS
VL: DIQMTQSPSTLSASVGDRVTITCRASQSISSWLAWYQQKPGKAPKLLIYDASSLESGVPSRFSGSGSGTEFTLTISSLQPDDFATYYCQQYESFPTFGGGTKVEIK
notes: IgG; also called Ab1; G59
B2: ADI-11828 IgG (antibody, V domains shown)
VH: EVQLVESGGGLVQPGGSLRLSCAASGFTFSSYWMSWVRQAPGKGLEWVANINQDGSEVYYVDSVKGRFTISRDNAKNSLYLQMNSLRAEDTAVYYCARDVGPGIAYQGHFDYWGQGTLVTVSS
VL: DIQMTQSPSSLSASVGDRVTITCRASQSIYYYLNWYQQKPGKAPKLLIYAASSRQSGVPSRFSGSGSGTDFTLTISSLQPEDFATYYCQQVYDTPLTFGGGTKVEIK
notes: IgG; also called Ab27
B3: ADI-11826 IgG (antibody, V domains shown)
VH: EVQLVESGGGLVQPGGSLRLSCAASGFTFPGYWMSWVRQAPGKGLEWVANINQDGSEVYYVDSVKGRFTISRDNAKNSLYLQMNSLRAEDTAVYYCAREANYYGNVGDDYWGQGTLVTVSS
VL: DIQMTQSPSSLSASVGDRVTITCRASQSIYNYLNWYQQKPGKAPKLLIYAASSTQSGVPSRFSGSGSGTDFTLTISSLQPEDFATYYCQQAFHVPITFGGGTKVEIK
notes: IgG; also called Ab26
B4: ADI-11830 IgG (antibody, V domains shown)
VH: EVQLVESGGGLVQPGGSLRLSCAASGFTFSSYWMSWVRQAPGKGLEWVANINTDGSEVYYVDSVKGRFTISRDNAKNSLYLQMNSLRAEDTAVYYCARDVGPGIAYQGHFDYWGQGTLVTVSS
VL: DIQMTQSPSSLSASVGDRVTITCRASQVIYSYLNWYQQKPGKAPKLLIYAASSLKSGVPSRFSGSGSGTDFTLTISSLQPEDFATYYCQQVYDTPLTFGGGTKVEIK
notes: IgG; also called Ab9
B5: ADI-11825 IgG (antibody, V domains shown)
VH: EVQLVESGGGLVQPGGSLRLSCAASGFTFGGYWMSWVRQAPGKGLEWVANINQDGSEEYYVDSVKGRFTISRDNAKNSLYLQMNSLRAEDTAVYYCAREANYYGNVGDDYWGQGTLVTVSS
VL: DIQMTQSPSSLSASVGDRVTITCRASQSIYNYLNWYQQKPGKAPKLLIYAASNLHSGVPSRFSGSGSGTDFTLTISSLQPEDFATYYCQQAFHVPITFGGGTKVEIK
notes: IgG; also called Ab25
B6: ADI-10160 IgG (antibody, V domains shown)
VH: EVQLVESGGGLVQPGGSLRLSCAASGFTFSSYWMSWVRQAPGKGLEWVANINQDGSEKYYVDSVKGRFTISRDNAKNSLYLQMNSLRAEDTAVYYCAREANYYGNVGDDYWGQGTLVTVSS
VL: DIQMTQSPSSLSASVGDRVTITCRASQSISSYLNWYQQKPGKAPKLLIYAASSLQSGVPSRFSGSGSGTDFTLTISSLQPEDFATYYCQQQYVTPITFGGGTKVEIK
notes: IgG; also called Ab15
B7: ADI-11812 IgG (antibody, V domains shown)
VH: QVQLVQSGAEVKKPGASVKVSCKASGYTFEIYYMHWVRQAPGQGLEWMGIINPSSGSTVYAQKFQGRVTMTRDTSTSTVYMELSSLRSEDTAVYYCARGAGYDDEDMDVWGKGTTVTVSS
VL: DIQMTQSPSSVSASVGDRVTITCRASQGIDSWLAWYQQKPGKAPKLLIYAASSLQSGVPSRFSGSGSGTDFTLTISSLQPEDFATYYCQQAHSYPLTFGGGTKVEIK
notes: IgG; also called Ab24
B8: ADI-11815 IgG (antibody, V domains shown)
VH: QVQLVQSGAEVKKPGASVKVSCKASGYTFGTYYMHWVRQAPGQGLEWMGIINPSRGSTVYAQKFQGRVTMTRDTSTSTVYMELSSLRSEDTAVYYCARGAGYDDEDMDVWGKGTTVTVSS
VL: DIQMTQSPSSVSASVGDRVTITCRASQGIDSWLAWYQQKPGKAPKLLIYAASSLQSGVPSRFSGSGSGTDFTLTISSLQPEDFATYYCQQAHSYPLTFGGGTKVEIK
notes: IgG; also called Ab7

These binders were tested against T1, human CD33 extracellular domain (human, UniProt P20138 18-259) (assay: BLI Octet, IgG loaded;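 note: IgGs captured on AHC biosensors, exposed to 100 nM antigen for 3 min association then 3 min dissociation in buffer, kinetics fitted with a 1:1 binding model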).
T1 construct: soluble monomeric ECD; also called human CD33 ECD; hCD33
Protocol: Briefly, ForteBio affinity measurements were performed by loading IgGs on-line onto AHC sensors. Sensors were equilibrated off-line in assay buffer for 30 min and then monitored on-line for 60 seconds for baseline establishment. Sensors with loaded IgGs were exposed to 100 nM antigen for 3 minutes, and afterwards were transferred to assay buffer for 3 min for off-rate measurement. All kinetics were analyzed using the 1:1 binding model.
With B1 the Kd was at most 0.575 nM, the koff was at most 0.0002 s⁻¹ and the kon was 348000 M⁻¹ s⁻¹.
Binder B2 has a Kd of 0.81 nM, a koff of 0.000533 s⁻¹ and a kon of 658000 M⁻¹ s⁻¹.
B3 gave a Kd of 0.393 nM, a koff of 0.000243 s⁻¹ and a kon of 619000 M⁻¹ s⁻¹.
In the case of B4, the Kd is reported as 1.2 nM, the koff is reported as 0.000923 s⁻¹ and the kon is reported as 770000 M⁻¹ s⁻¹.
B5 gave a Kd of 0.54 nM, a koff of 0.000376 s⁻¹ and a kon of 696000 M⁻¹ s⁻¹.
For B6, the Kd was 5.1 nM, the koff was 0.00325 s⁻¹ and the kon was 638000 M⁻¹ s⁻¹.
B7 gave a Kd of 1.91 nM, a koff of 0.000315 s⁻¹ and a kon of 166000 M⁻¹ s⁻¹.
B8 showed a Kd of 1.44 nM, a koff of 0.000229 s⁻¹ and a kon of 159000 M⁻¹ s⁻¹.
